Values quoted from earlier work in patent US20260070964A1, “IL-12 GENE THERAPY AND ANTI-VEGF COMBINATION FOR TREATING CANCER” (IMUNON, INC., priority 2022, published 2026).

Columns and labels:
established tumors = settings: animal models
[1] = several experimental trials and an initial human trial
[2] = human clinical trial

Substance: recombinant IL-12: recombinant interleukin-12 protein
- antitumor effects (established tumors): profound T-cell mediated antitumor effects causing regression of established tumors
- toxicity on systemic administration [1]: dose limiting toxicity
- toxicity on intraperitoneal administration [2]: Dose limiting toxicity was also observed
